Reference: patent publication US20250059280A1 (AbbVie / Abbott, published 2025)

Assays:
[1] = target: T1, human programmed death receptor 1 (PD-1) (human, UniProt Q15116 25-288); experiment: ratio of in vitro PD-1 receptor saturation EC50 values on CD8+ T cells, reference mAb2
T1 construct: whole, on cells; Endogenous PD-1 on T cells of donors or study subjects; also called PD-1 receptor

[2] = target: T1, human programmed death receptor 1 (PD-1); experiment: in vitro PD-1 receptor saturation on CD8+ T cells, flow cytometry, whole blood, Emax model fit

T1 sequence (Q15116 25-288): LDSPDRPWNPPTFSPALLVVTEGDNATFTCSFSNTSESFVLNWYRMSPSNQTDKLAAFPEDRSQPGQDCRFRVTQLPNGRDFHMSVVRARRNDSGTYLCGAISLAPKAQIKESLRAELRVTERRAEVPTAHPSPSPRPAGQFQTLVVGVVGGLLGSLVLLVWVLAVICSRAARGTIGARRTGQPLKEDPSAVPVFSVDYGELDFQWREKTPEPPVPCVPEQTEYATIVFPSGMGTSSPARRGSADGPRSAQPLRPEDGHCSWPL

B1: cemiplimab (Catalog No. A2022, Selleckchem) (antibody, V domains shown)
VH: EVQLLESGGVLVQPGGSLRLSCAASGFTFSNFGMTWVRQAPGKGLEWVSGISGGGRDTYFADSVKGRFTISRDNSKNTLYLQMNSLKGEDTAVYYCVKWGNIYFDYWGQGTLVTVSS
VL: DIQMTQSPSSLSASVGDSITITCRASLSINTFLNWYQQKPGKAPNLLIYAASSLHGGVPSRFSGSGSGTDFTLTIRTLQPEDFATYYCQQSSNTPFTFGPGTVVDFR
- Scaling Factor (ratio of EC50 of PD-1 saturation to the EC50 of mAb2) [1]: 2.67
- EC95 [2]: 0.366 µg/mL
